From the supplement of paper PMC6755084 come the findings set out here.

The data set concerns F1*sub RNA substrate (template-directed ligation). The data set is described as follows: fraction ligated after 30 min (ligated reads / total reads); higher = more ligase activity; sequences stand for … in GAGACCGCAACTGAAAAGTTGT…AGTTCTGCACGTAGAAGCAAAAGGC
Particulars: 42 °C. The method, boiled down:
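Oligo-pool templates underwent PCR amplification, T7 transcription and gel purification to yield ribozyme variants. Gel-separated ligated and unligated bands were converted to complementary DNA with barcoded primers and sequenced on a MiSeq, keeping core bases of quality ≥20. The ratio of ligated reads to total reads gave the fraction ligated for every variant.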
The sequence “TATCATTGTGTAAGACACTTTGGAGGGTTGA [3d1183]” returned a fraction ligated of 0.0175. For the sequence “TATCATTGTGTAAGACACTTTGGATGGGTTA [3d1185]”, the fraction ligated came out at 0.677. The sequence “TATCATTGTGTAAGACACTTTGGATGGGTTG [3d1186]” yielded a fraction ligated of 0.786. The same measure for “TATCATTGTGTAAGACACTTTGGATGGGTTGA [2d112]”: 0.824; for “TATCATTGTGTAAGACACTTTGGATGGTTGA [3d1184]”: 0.0387; for “TATCATTGTGTAAGACACTTTGGTGGGTTGA [3d1182]”: 0.0386. The same measure for “TATCATTGTGTAAGACATTTGGATGGGTTGA [3d1179]”: 0.839; for “TATCATTGTGTAAGACCTTTGGATGGGTTGA [3d1178]”: 0.875; for “TATCATTGTGTAAGCACTTTGGATGGGTTGA [3d1176]”: 0.86. For “TATCATTGTGTAGACACTTTGGATGGGTTGA [3d1174]”, the fraction ligated was 0.856.

In turn, “TATCATTGTTAAGACACTTTGGATGGGTTGA [3d1172]” showed a fraction ligated of 0.798. The same measure for “TATCATTTCGAAGACACTTTGGATGGGTTGA [3d1142]”: 0.812. The same measure for “TATCATTTCGTAAACACTTTGGATGGGTTGA [3d1144]”: 0.806; for “TATCATTTCGTAAGAACTTTGGATGGGTTGA [3d1146]”: 0.857. “TATCATTTCGTAAGACACTTGGATGGGTTGA [3d1149]” gave a fraction ligated of 0.763. The same measure for “TATCATTTCGTAAGACACTTTGATGGGTTGA [3d1150]”: 0.799; for “TATCATTTCGTAAGACACTTTGGAGGGTTGA [3d1152]”: 0.042.

Sequence “TATCATTTCGTAAGACACTTTGGATGGGTTA [3d1154]” registered a fraction ligated of 0.313. The same measure for “TATCATTTCGTAAGACACTTTGGATGGGTTG [3d1155]”: 0.769; for “TATCATTTCGTAAGACACTTTGGATGGGTTGA [2d110]”: 0.807; for “TATCATTTCGTAAGACACTTTGGATGGTTGA [3d1153]”: 0.101.

Regarding “TATCATTTCGTAAGACACTTTGGTGGGTTGA [3d1151]”, the fraction ligated worked out at 0.1.

Regarding “TATCATTTCGTAAGACATTTGGATGGGTTGA [3d1148]”, the fraction ligated was determined as 0.801.

In turn, “TATCATTTCGTAAGACCTTTGGATGGGTTGA [3d1147]” showed a fraction ligated of 0.775. The same measure for “TATCATTTCGTAAGCACTTTGGATGGGTTGA [3d1145]”: 0.786; for “TATCATTTCGTAGACACTTTGGATGGGTTGA [3d1143]”: 0.802. The same measure for “TATCATTTCTAAGACACTTTGGATGGGTTGA [3d1141]”: 0.786; for “TATCATTTGTAAGACACTTTGGATGGGTTGA [3d1140]”: 0.803; for TATCCGTCGTAAGACACTTTGGATGGGTTGA [3d949]: 0.798. TATCCTGCGTAAGACACTTTGGATGGGTTGA [3d951] registered a fraction ligated of 0.786. Turning to TATCCTGTCGAAGACACTTTGGATGGGTTGA [3d954], the fraction ligated worked out at 0.786.

For the sequence TATCCTGTCGTAAACACTTTGGATGGGTTGA [3d956], the fraction ligated is 0.796. In turn, TATCCTGTCGTAAGAACTTTGGATGGGTTGA [3d958] displayed a fraction ligated of 0.803. The same measure for TATCCTGTCGTAAGACACTTGGATGGGTTGA [3d961]: 0.794.

Consider TATCCTGTCGTAAGACACTTTGATGGGTTGA [3d962], for which the fraction ligated was 0.754. The same measure for TATCCTGTCGTAAGACACTTTGGAGGGTTGA [3d964]: 0.0143; for TATCCTGTCGTAAGACACTTTGGATGGGTTA [3d966]: 0.436; for TATCCTGTCGTAAGACACTTTGGATGGGTTG [3d967]: 0.76. As for TATCCTGTCGTAAGACACTTTGGATGGGTTGA [2d90], the fraction ligated came out at 0.788. TATCCTGTCGTAAGACACTTTGGATGGTTGA [3d965] showed a fraction ligated of 0.038. The same measure for TATCCTGTCGTAAGACACTTTGGTGGGTTGA [3d963]: 0.274. The same measure for TATCCTGTCGTAAGACATTTGGATGGGTTGA [3d960]: 0.766. Sequence TATCCTGTCGTAAGACCTTTGGATGGGTTGA [3d959] showed a fraction ligated of 0.772. TATCCTGTCGTAAGCACTTTGGATGGGTTGA [3d957]: the fraction ligated stood at 0.783.

For TATCCTGTCGTAGACACTTTGGATGGGTTGA [3d955], the fraction ligated turned out to be 0.779. TATCCTGTCTAAGACACTTTGGATGGGTTGA [3d953] yielded a fraction ligated of 0.785. The same measure for TATCCTGTGTAAGACACTTTGGATGGGTTGA [3d952]: 0.791; for TATCCTTCGTAAGACACTTTGGATGGGTTGA [3d950]: 0.798. TATCCTTGCGAAGACACTTTGGATGGGTTGA [3d986] showed a fraction ligated of 0.806. TATCCTTGCGTAAACACTTTGGATGGGTTGA [3d988] returned a fraction ligated of 0.807. TATCCTTGCGTAAGAACTTTGGATGGGTTGA [3d990] showed a fraction ligated of 0.832.

Regarding TATCCTTGCGTAAGACACTTGGATGGGTTGA [3d993], the fraction ligated stood at 0.75. Consider TATCCTTGCGTAAGACACTTTGATGGGTTGA [3d994], for which the fraction ligated stood at 0.815. As for TATCCTTGCGTAAGACACTTTGGAGGGTTGA [3d996], the fraction ligated was found to be 0.0215. The same measure for TATCCTTGCGTAAGACACTTTGGATGGGTTA [3d998]: 0.403; for TATCCTTGCGTAAGACACTTTGGATGGGTTG [3d999]: 0.791; for TATCCTTGCGTAAGACACTTTGGATGGGTTGA [2d92]: 0.803. As for TATCCTTGCGTAAGACACTTTGGATGGTTGA [3d997], the fraction ligated amounted to 0.0475. The same measure for TATCCTTGCGTAAGACACTTTGGTGGGTTGA [3d995]: 0.131; for TATCCTTGCGTAAGACATTTGGATGGGTTGA [3d992]: 0.792; for TATCCTTGCGTAAGACCTTTGGATGGGTTGA [3d991]: 0.792. The same measure for TATCCTTGCGTAAGCACTTTGGATGGGTTGA [3d989]: 0.775; for TATCCTTGCGTAGACACTTTGGATGGGTTGA [3d987]: 0.799.

Sequence TATCCTTGCTAAGACACTTTGGATGGGTTGA [3d985] yielded a fraction ligated of 0.764. The same measure for TATCCTTGGTAAGACACTTTGGATGGGTTGA [3d984]: 0.796; for “TATCCTTGTCAAGACACTTTGGATGGGTTGA [3d1015]”: 0.791; for “TATCCTTGTCGAAACACTTTGGATGGGTTGA [3d1030]”: 0.81. The same measure for “TATCCTTGTCGAAGAACTTTGGATGGGTTGA [3d1032]”: 0.772; for “TATCCTTGTCGAAGACACTTGGATGGGTTGA [3d1035]”: 0.775; for “TATCCTTGTCGAAGACACTTTGATGGGTTGA [3d1036]”: 0.781. Regarding “TATCCTTGTCGAAGACACTTTGGAGGGTTGA [3d1038]”, the fraction ligated came to 0.016. The same measure for “TATCCTTGTCGAAGACACTTTGGATGGGTTA [3d1040]”: 0.404; for “TATCCTTGTCGAAGACACTTTGGATGGGTTG [3d1041]”: 0.783; for TATCCTTGTCGAAGACACTTTGGATGGGTTGA [2d95]: 0.806. The same measure for “TATCCTTGTCGAAGACACTTTGGATGGTTGA [3d1039]”: 0.0395. The same measure for “TATCCTTGTCGAAGACACTTTGGTGGGTTGA [3d1037]”: 0.181; for “TATCCTTGTCGAAGACATTTGGATGGGTTGA [3d1034]”: 0.79. In turn, “TATCCTTGTCGAAGACCTTTGGATGGGTTGA [3d1033]” gave a fraction ligated of 0.747. On to “TATCCTTGTCGAAGCACTTTGGATGGGTTGA [3d1031]”, for which the fraction ligated turned out to be 0.775. On to “TATCCTTGTCGAGACACTTTGGATGGGTTGA [3d1029]”, for which the fraction ligated stood at 0.793. The same measure for “TATCCTTGTCGTAAAACTTTGGATGGGTTGA [3d1055]”: 0.792. For “TATCCTTGTCGTAAACACTTGGATGGGTTGA [3d1058]”, the fraction ligated came out at 0.721.

On to “TATCCTTGTCGTAAACACTTTGATGGGTTGA [3d1059]”, for which the fraction ligated is 0.758.

For the sequence “TATCCTTGTCGTAAACACTTTGGAGGGTTGA [3d1061]”, the fraction ligated was found to be 0.0122. “TATCCTTGTCGTAAACACTTTGGATGGGTTA [3d1063]”: the fraction ligated turned out to be 0.416. “TATCCTTGTCGTAAACACTTTGGATGGGTTG [3d1064]” showed a fraction ligated of 0.805. With “TATCCTTGTCGTAAACACTTTGGATGGTTGA [3d1062]”, the fraction ligated was determined as 0.0319. The same measure for “TATCCTTGTCGTAAACACTTTGGTGGGTTGA [3d1060]”: 0.0666. The same measure for “TATCCTTGTCGTAAACATTTGGATGGGTTGA [3d1057]”: 0.771; for “TATCCTTGTCGTAAACCTTTGGATGGGTTGA [3d1056]”: 0.766; for “TATCCTTGTCGTAACACTTTGGATGGGTTGA [3d1043]”: 0.81. The same measure for “TATCCTTGTCGTAAGAACTTGGATGGGTTGA [3d1076]”: 0.591; for “TATCCTTGTCGTAAGAACTTTGATGGGTTGA [3d1077]”: 0.8; for “TATCCTTGTCGTAAGAACTTTGGAGGGTTGA [3d1079]”: 0.00912. The sequence “TATCCTTGTCGTAAGAACTTTGGATGGGTTA [3d1081]” came in with a fraction ligated of 0.351.

For “TATCCTTGTCGTAAGAACTTTGGATGGGTTG [3d1082]”, the fraction ligated was 0.779. The same measure for “TATCCTTGTCGTAAGAACTTTGGATGGTTGA [3d1080]”: 0.0325.
